From PMC4459029, “Effects of receptor tyrosine kinase inhibitors on VEGF165a- and VEGF165b-stimulated gene transcription in HEK-293 cells expressing human VEGFR2” (British Journal of Pharmacology, 2015)
Where “and” joins values, the source holds several entries; their conditions need not be identical. Equal values may be shown once.

What was measured:
[1] = test system: basal NFAT-luciferase activity; assay: basal NFAT-luciferase production in VEGFR2 NFAT cells; format: cell-based, human; settings: no VEGF; P < 0.05 one way ANOVA
Description: HEK-293 cells expressing the human VEGFR2 and an NFAT reporter gene were provided by Promega Corporation. The NFAT reporter gene contained an NFAT response element linked via a minimal promoter to the firefly luciferase gene luc2P containing a human sequence enriched in proline (P), glutamic acid (E), serine (S) and threonine (T) protein destabilization sequence (Voon et al., [2005]). VEGFR2 NFAT cells were maintained in DMEM media supplemented with 10% FCS and 0.5% G418 in a humidified 5% CO2/95% air atmosphere at 37°C.
VEGFR2 NFAT cells were seeded in a T75 flask at 5 × 10^6 cells per flask using DMEM +10%FCS and incubated at 37°C in a 5% CO2/95% air atmosphere for 3 days until the cells were 100% confluent. On the fourth day, cells were washed with PBS and detached using 3 mL Versene® (ETDA 0.02% in PBS). Once cells had detached, 6 mL of DMEM +0.1%BSA was added and the cells were counted using a haemocytometer. […] After the 5 h incubation, 100 μL ONE-Glo Luciferase Assay reagent was added to each well and luminescence was measured according to the manufacturer's instructions on a Topcount platereader (Perkin Elmer, Llantrisant, UK).

[2] = target: T1, human VEGFR2 (Homo sapiens, UniProt P35968); assay: VEGFR2-stimulated NFAT-luciferase reporter gene activity in HEK-293 cells; format: cell-based
T1 construct: host or cells: HEK-293
T1 sequence (P35968 20-1356): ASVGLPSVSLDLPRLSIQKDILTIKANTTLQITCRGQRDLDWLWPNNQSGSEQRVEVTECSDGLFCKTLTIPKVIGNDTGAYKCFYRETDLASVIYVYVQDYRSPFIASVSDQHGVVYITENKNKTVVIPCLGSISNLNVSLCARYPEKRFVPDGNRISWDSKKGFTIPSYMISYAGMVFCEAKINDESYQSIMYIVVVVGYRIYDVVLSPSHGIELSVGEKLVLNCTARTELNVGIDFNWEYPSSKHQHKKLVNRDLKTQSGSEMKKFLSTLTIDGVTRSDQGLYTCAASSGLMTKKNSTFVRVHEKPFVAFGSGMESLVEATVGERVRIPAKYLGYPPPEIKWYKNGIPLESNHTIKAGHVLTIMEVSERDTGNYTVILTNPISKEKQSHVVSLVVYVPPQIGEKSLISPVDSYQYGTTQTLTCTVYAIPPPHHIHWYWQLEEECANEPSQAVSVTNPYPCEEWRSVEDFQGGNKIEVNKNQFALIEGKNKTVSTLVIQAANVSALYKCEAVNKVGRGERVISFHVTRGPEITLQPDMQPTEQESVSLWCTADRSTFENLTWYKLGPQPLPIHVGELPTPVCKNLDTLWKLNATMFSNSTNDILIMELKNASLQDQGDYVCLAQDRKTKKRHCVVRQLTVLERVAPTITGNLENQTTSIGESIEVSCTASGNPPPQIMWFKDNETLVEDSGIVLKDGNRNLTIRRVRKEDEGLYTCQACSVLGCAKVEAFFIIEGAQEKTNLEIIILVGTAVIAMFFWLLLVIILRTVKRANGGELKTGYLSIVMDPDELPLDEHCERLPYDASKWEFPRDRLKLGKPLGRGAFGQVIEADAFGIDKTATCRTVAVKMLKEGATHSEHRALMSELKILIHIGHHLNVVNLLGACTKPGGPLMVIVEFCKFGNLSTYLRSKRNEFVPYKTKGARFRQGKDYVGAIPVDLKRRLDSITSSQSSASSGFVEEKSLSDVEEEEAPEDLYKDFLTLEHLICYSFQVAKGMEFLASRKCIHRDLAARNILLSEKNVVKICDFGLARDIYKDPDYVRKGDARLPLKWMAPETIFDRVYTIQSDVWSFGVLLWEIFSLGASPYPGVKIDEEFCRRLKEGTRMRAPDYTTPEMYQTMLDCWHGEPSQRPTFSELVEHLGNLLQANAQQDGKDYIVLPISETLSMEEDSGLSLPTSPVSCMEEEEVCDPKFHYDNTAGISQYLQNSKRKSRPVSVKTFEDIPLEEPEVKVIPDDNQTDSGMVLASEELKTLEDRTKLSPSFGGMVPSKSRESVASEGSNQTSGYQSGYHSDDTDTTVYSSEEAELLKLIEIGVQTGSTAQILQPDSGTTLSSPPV
Method: HEK-293 cells expressing the human VEGFR2 and an NFAT reporter gene were provided by Promega Corporation.
On the fourth day, cells were washed with PBS and detached using 3 mL Versene® (ETDA 0.02% in PBS). Once cells had detached, 6 mL of DMEM +0.1%BSA was added and the cells were counted using a haemocytometer. Cells were centrifuged at 200× g for 5 min, resuspended in DMEM +0.1%BSA and seeded at a density of 4 × 10^4 cells per well in 80 μL DMEM +0.1%BSA in white-sided, clear flat-bottomed 96-well plates (Greiner, Stonehouse, UK), which had been coated with 0.01 mg·mL^−1 poly-D-lysine in PBS for 30 min and washed with DMEM. […] After the 5 h incubation, 100 μL ONE-Glo Luciferase Assay reagent was added to each well and luminescence was measured according to the manufacturer's instructions on a Topcount platereader (Perkin Elmer, Llantrisant, UK).
All data were fitted using non-linear regression in Prism 6 (GraphPad Software, San Diego, CA, USA).
A comparison of the extra sum of squares that resulted from the analysis with separate EC50 or Emax values (over that with one of the parameters shared) using the F-test (Prism 6) then allowed for statistical analysis of the difference between EC50 or Emax values. […]

In the case of `COc1cc2c(Oc3ccc4[nH]c(C)cc4c3F)ncnc2cc1OCCCN1CCCC1` [Cediranib], the “concentration giving significant inhibition of basal NFAT-luciferase response” value [1] is reported as “above 10 nM”.

B1: VEGF165b: VEGF-A exon 8 splice variant, lower-efficacy partial agonist at VEGFR2, from R&D systems (protein)
chain: APMAEGGGQNHHEVVKFMDVYQRSYCHPIETLVDIFQEYPDEIEYIFKPSCVPLMRCGGCCNDEGLECVPTEESNITMQIMRIKPHQGQHIGEMSFLQHNKCECRPKKDRARQENPCGPCSERRKHLFVQDPQTCKCSCKNTDSRCKARQLELNERTCRSLTRKD
modifications: disulfide-linked homodimer; natural exon 8b splice isoform (VEGF165b); limits are the mature chain after removal of the 26-residue signal pep
B1 was tested, and the “−Log EC50” value ([2]; agonist-stimulated NFAT-luciferase response, 5 h incubation) was 9.21 ± 0.08 and the “pKA at VEGFR2 (operational model)” value ([2]; partial agonist fit) was 8.83 and 8.8.
